Results as given in the DeepSol protein solubility set.

Assay: soluble on expression in E. coli; label from the status in PepcDB or PDB records

| Sequence | soluble on expression in E. coli |
| --- | --- |
| MPIKSVAIIGAGIAGLTAALAFARHGIDCDIIEQTGELAEVGAGLQLSPNAARILATLGVLPDIEARWTEPVSVDLASGKSLTTLLSLPMGAVARSRWGAPYGVLHRSTLQSALLQAVTRNPLCRLHLGKRIENATADVIAATTFRDHDLIVGADGVWSAARFSVPAAPTATFSGNVAWRFTVAAEEVPSAFNKTTVTAYLGSRGHIVAYPLKEVGGFNIVAIALGADPGATWRAESSGRQKALLLEQFRDFSPDIVRLLDSSENPTFWPLYQAGPGRWHNGRDTVLIGDAAHAMMPFAAQGAAMAIEDAFELAGTMAGSNGEKPLPVPQALAAFEALRLPRIEKARKRASLNRFAYHARGPVRIARDLVFSTRPPEAFLKDFDWLYGYHARGLEHHHHHH | soluble |
| MEPVFKEPSPKKKRVENPPENAPDAPKKPQLKHESEFLRSIPSSSQYEKSFMHRDTISHVIATKTDFIITASVDGHLKFWKKKHSEGVEFVKHFRCHLSEFSHICANIDGTLLATVCEADKSVKVFDIENFDMINMIKLDFPPKTANWVHQSNDPIAHLAIGAADSGKIIVVDGKATAAPICIKDKLHSTPVKIIEYSQSLDIIVSIDESGMIECWNGERGDFQFPETKLTWEYKLETDLYDFVKAKTIPVCATFDPSGLKLATFAEDRKIRIFNVKTGKLAQLIDETTQKYHCEAKENKNYGLQHMEWSRRLASEKEMDKDKKNSLKYTKICFDQSGNFLLYPTPIGVKVFNLVTNEVSRTIGRDEAIRFVAVSLCNALPDIRQKLQGAAITLETAAADNPTLNRKTDPDPLMVCCALRKNRFYLFTNTEPYNVEDDEGNPSVSGRDVFNERPKKEDLLTALDTEGGEKVLNKEAIIHTSFGDITIRLFGDECPKTVENFCTHSRRGYYNGLTFHRVIKSFMIQTGDPSGKGTGGESIWGEDFEDEFHPRLRHDKPFKVSMANAGGGNTNGSQFFITVCPADWLDGKNTLFGEVTAGMSVVQRINQVSTFERSGRPRESIQIMSISLK | not soluble |
| MPSRKFADGEVVRGRWPGSSLYYEVEILSHDSTSQLYTVKYKDGTELELKENDIK | soluble |
| MNMANVKIKIRDGLIDRLRNMSGITSDEAFARTIGTSRSTLVDVKTGEREPSLAFAIGIAQAFGLGLSEIVTWETETTAA | not soluble |
| MTKPVSISKKPRKQHTPEFRNEALKLAERIGVAAAARELSLYESQLYAWRSKQQQQMSSSERESELAAENVRLKRQLAEQAEELSILQKAATYFAKRLK | not soluble |
| MGSDKIHHHHHHMAAALDGIRVLDLSRVLAGPWASQALADLGAEVIKIERPGAGDDTRSWGPPFLKDEDGRETTDAAYFLAANRGKKSLTVDITKAEGQDLVRALAARSHVVIENFKLGGLAKYGLDWPSLRAVNPALVYCSITGFGQTGPYAPRAGYDAMIQAMSGLMSVTGEPDGVAGGGPMKVGVAVTDILTGLYAAFGILAALRHAEATGEGQHIDLALMDTAVACMANQAANALVGERVPGRLGTAHPNIVPYQAFATQDGHLMLAVGNDGQFARLCAIGQRPDLPLDPRFARNRDRVAHRAALLAEIIPMMASRSTDAWIAALESAGVPCGPINTLDRVFADPQVIARGLRVDGTHAEAGTVPMVRNPLLLSATPPTHTAGPPTLGQHTDGVLSDVLGLTAEDITTLRQKAIV | not soluble |
| ATQRFLIEKFSQEQIGENIVCRVICTTGQIPIRDLSADISQVLKEKRSIKKVWTFGRNPACDYHLGNISRLSNKHFQILLGEDGNLLLNDISTNGTWLNGQKVEKNSNQLLSQGDEITVGVGVESDILSLVIFINDKFKQCLEQNKVDRIR | soluble |
| MAESVEKLEDGIVRSAEQVSSQIRAAKDAIASVIFGQDRVIENTLVTILSGGHALLIGVPGLAKTKLVETLGVTLGLDAKRIQFTPDLMPSDILGAEVLDESTAGKRSFRFIAGPVFAQLLMADEINRASPRTQSALLQAMQEQHITVAGARHDLPKPFHVLATQNPLEQEGTYPLPEAQLDRFLMEIDVDYPDRDAERRILFETTGAEETLAKGSMTADALITAQRLIRRLPVGDSVVEAILSLVRSARPGPDSGETGKFIAWGPGPRASQSLMLAVRARALIDGRLAPSVDDVLDLAEPILKHRMALTFQARAEGRTIPDVIRQLKTRIGLEHHHHHH | soluble |
| MEKRKHFTPEQKAKIVIEVIKGERTLNEIAAEYGIHPNLLSRWKTEFISNAGRVFSKETDEVEKVKQSYEKEKDELLKQIGQLSYEVAWLKKKSGLL | not soluble |
| MSLQCALYDAGRCRSCQWITQPIPEQLSAKTADLKNLLADFPVEEWCAPVSGPEQGFRNKAKMVVSGSVEKPLLGMLHRDGTPEDLCDCPLYPASFAPVFAALKPFIARAGLTPYNVARKRGELKYILLTESQSDGGMMLRFVLRSETKLAQLRKALPWLQAQLPQLKVITVNIQPVHMAIMEGETEIYLTEQQALVERFNDVPLWIRPQSFFQTNPAVASQLYATARDWVRQLPVKHMWDLFCGVGGFGLHCATPDMQLTGIEIALEAIACAKQSAAELGLTRLQFQALDSTQFATAQGEVPELVLVNPPRRGIGKPLCDYLSTMAPRFIIYSSCNAQTMAKDIRELPGYRIERVQLFDMFPHTAHYEVLTLLVKMEGHHHHHH | soluble |
| MNLLQCYPTTTVDEMNCEEWGNGTESTQSVAACQGCIELRKEVTDLRQAVNLILPMLPLYPTIGNGFNATGLAAQPTLQHVIQQSLLRKRPVAQTPTVPQPECPGQIRPVLSSPAAALQNVIMLNPWIMGSSLKPASPTLPNGQIPTTIGETSLQGTDDQTVKWIGPSSVDSNGQKTDSSAASAGDNQNIDVIGDGSESPTSSNHSAQEIALMTSQQTFLNALKDSSFLFTNPVPTVETAPPLRVAPPINGTTNGTAKAGGPERKPRKPVNDDIVKIVRNQDLSEENISMFEIPVPKAIASDPTFRPVSEQQIIQQIIQGKKYEEMEVGECMIQLCKKLAEKRVFGPRLMSQTTVAGLNHSNYANLPIKGICYIQHVCRKVLYDKFENEEDFWDKFREAMRKLAARCRRVRHAKKTKHNREEAQAEMLSKRYGEDMPFNLNGAGLIRPKVETVSPEANILNSDQIKSQLESLFAHIPKTESETPLIEIIQQNISLFTHLIRTKVESQSPPLQGPQ | not soluble |
| MKSADLIIIGGGMVGLALAGLLKDSPCQIKIIEKSAPKTQKYYANRVSAINTASEKMLQQLGVFEHIPTDAYTDYQKIIVSEKDSFAKIEFDNNDLAIKQLGLTQLGLIIANSQLQQALWQQVSQQKNVEIILSTPKTIGISESGAFLTLENGEMLAGKLVVGADGAHSWLRNQINIPLISQDYQQTALVCCVETAEPHNNIARQIFGPDSILAFLPLADKNQCSIVWSLPPDQANKLTTCDEQQFNQALTIAFDYQLGLVKLQDSRKIYPLTARYARDFAQMRIALIGDAAHTIHPLAGLGVNLGFADAITLAEQIKLHLAAAHDIGEYRHLRYFERTRKTETIKLLAAMEGLKQLFSGNNPLKKLIRGIGLVGTNHFSAIKKRLIEQVVNILEHHHHHH | soluble |
| MGSDKIHHHHHHMSTFHPSHPTHNRLLAALPPIELDDLAPHLELVHLLPGDVLCKPGETLPYAYFPTSSVISIHCMLENGASSELTSVGREGMLGVSLFMGGEATQNWVSVQSAGYGYRLNAAFLLQEFNEGGMLQRLLLRYSQALITEAVQNVVCSRYHTAQQRLCRWLLSMLDRLGPQDLILTQESIASILGVRRESVTAIARKLLEAGTICYRRGHIMVIDQIGLQKETCECYKKVKKEFDQVFDEVKTCEKVRQNSINAANAL | not soluble |
| MGSDKIHHHHHHMKIYLVGGAVRDSLLGLPVTEKDWVVVGATPEHLLAQGYQQVGKDFPVFLHPISRDEYALARTERKSGKGYTGFVCHAEPDVTLEQDLLRRDLTINAIARTERGDLIDPYHGRRDLDNRVLRHVSDAFSEDPLRVLRVARFAARFAHLGFQIAEETMALMQKMAHEGELAFLTPERVWKETEKALGTSSPDVYFQVLRDCGALAVLFPEIDNLYGVPAPAKWHPEIDTGIHTMMTVAMAARLSPDIDVRFATLCHDLGKGLTPPELWPRHLGHGPAGVKLVEALCQRLRVPNPIRDLAKLVAEYHDLVHTVQVLQPKTLLKLFDAIDVWRKPQRLEQLALTSEADARGRTSFEENPYPQGNYLREAFRVASQVSSASVVADGFKGIDVRNELARRRIHALADWKAQQPDVSSTS | not soluble |
| MDLDQLDLNPRITAAVKRGRLKSVKEILCYSGPDLQRLTGLPSHDVQCLLRAASLHLRGSRVLSALHLFQQKESFPEQHQRLSLGCPVLDQFLGGGLPLEGITGLAGCSSAGKTQLALQLCLAVQFPRQYGGLEAGAVYICTEDAFPSKRLWQLIAQQRRLRTDAPEELIEKIRFSNHIFIEHAADVPHFVVSSTFRPQPSGRSSCSRWGPHCED | soluble |
